This note sets out measurements from article doi:10.1101/2020.09.08.280818.

Experiment [1] addresses SARS-CoV-2 spike glycoprotein stabilised in the prefusion conformation (P2 S), TwinStrep-tagged (SARS-CoV-2) (UniProt P0DTC2). Description: cryo-EM structure.
The target of experiment [2] is human ACE2 peptidase domain (PD), Avi-tagged (human). As to the kind of experiment: BLI.

One may read the stoichiometry N as the number of molecules, sites or subunits per partner or assembly. One may read the Kd as the equilibrium constant for the complex coming apart. Low readings indicate tighter binding, high ones weaker binding. The substance “SARS-CoV-2 spike glycoprotein stabilised in the prefusion conformation (P2 S), TwinStrep-tagged (from UniProt P0DTC2 14-1273) (natural protein)” yielded a stoichiometry N in experiment [1] of 3. Besides, in experiment [2], the Kd was determined as 1 nM.
